B1: TPR t1 (parent)
chain: GACCAAUCUGCCCUCAGAGCUCGAGAACAUCUUCGGAUGCAGAGGAGGCAGGCUUCGGUGGCGCGAUAGCGCCAACGUCCUCAACCUCCAAUGCAUCCCACCACAUGAUGAUGCCUGAAGAGCCUUGGUUUUUUG

In the data set the parent is B1. The data set can be described thus: polymerase ribozyme fitness, log enrichment relative to wild type (log ratio); higher = more active; in vitro selection for triplet polymerase activity. A digest of the protocol:
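Each subunit of a heterodimeric triplet polymerase ribozyme was represented by a PCR-built, transcribed mutant library that underwent triplicate single-round in vitro selection with frozen incubation at −7 °C. Extended constructs were recovered by gel excision, streptavidin-bead capture and RT-PCR, and Illumina sequencing of input and output libraries kept genotypes with ≥10 input reads and ≥1 read per output. Fitness is the logarithm of genotype enrichment relative to wild-type enrichment, from inverse-variance-weighted replicate averages, with a logarithm base of 2.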
For the variant C79A G113A, the “polymerase ribozyme fitness (log ratio)” value is -2.27.

C80U C89G: the “polymerase ribozyme fitness (log ratio)” value was -1.42. The same measure for U81A A95C A121C: 0.395; for C80A U112G: -4.16. Consider C80U U81A C89U U126G, for which the “polymerase ribozyme fitness (log ratio)” value is -3.21.

For the variant C80A A95G, the “polymerase ribozyme fitness (log ratio)” value was -3.38. As for U81A C88A C101U, the figure is -1.46; as for U78G G120U, -0.202; as for U78G C89U U125G, -0.754. The same measure for C82A G113U C114U: -1.55; for C79U U92G C115G: -3.67; for U78C G122A: -1.22. The same measure for U78C A118G: -0.499. In the case of C79A C102U, the “polymerase ribozyme fitness (log ratio)” value is -4.37. Take C80U C86U C114G C124G U125A: the “polymerase ribozyme fitness (log ratio)” value is -3.38.

With C80U A103G, the “polymerase ribozyme fitness (log ratio)” value was -5.21.

Turning to C79A U92C G110C U125G, the “polymerase ribozyme fitness (log ratio)” value was -5.23.

Take C80A C94U: the “polymerase ribozyme fitness (log ratio)” value is -2.69.

As to C79G A108G, the “polymerase ribozyme fitness (log ratio)” value is -3.63. The same measure for C79A A111G: -0.997; for U78G C82G: -0.36; for C82A C102A C114U: -4.27. As for C82A G93A A100C C123U U125A, the figure is -1; as for C80A C97A G107U C115U, -7.92; as for C79G U112A, -1.41. As for C80U C101U, the figure is -0.367. With C80U C101A, the “polymerase ribozyme fitness (log ratio)” value was -1.52.

Take C82A G110C A121U: the “polymerase ribozyme fitness (log ratio)” value was -3.02. The same measure for C79U C114A G120C G127U: -1.06; for C80A A84C: -3.11.

For C82A A111U, the “polymerase ribozyme fitness (log ratio)” value is -3.3. As for U78C C85G U106A, the figure is -2.34. As for U81A C97U, the figure is -1.89. As for U81G G113C, the figure is -4.85. As to U78G G113A U130C, the “polymerase ribozyme fitness (log ratio)” value is -1.64. The same measure for C80U U92C: -2.1; for U78C U92G: -2.87; for U78C U81A A83G: -0.944. As for C79U A111U A121U, the figure is -3.62. As for C79A A91G, the figure is -2.3. Take U78C C97U A103U C123G: the “polymerase ribozyme fitness (log ratio)” value is -4.59.

As for C82A A103U, the “polymerase ribozyme fitness (log ratio)” value is -6.11.

As for C80A G113A, the “polymerase ribozyme fitness (log ratio)” value is -3.03. For C80A G113C, the “polymerase ribozyme fitness (log ratio)” value is -5.5. As for U78G C79A A118G U130G, the figure is -2.19. As for C80U A83G, the figure is -1.23; as for U81A A121U, 1.04. For the variant C79A C94A G117U, the “polymerase ribozyme fitness (log ratio)” value is -4.86. With U78G C85G C88A A111G C114A, the “polymerase ribozyme fitness (log ratio)” value was -6.16.

Regarding C80G C124G, the “polymerase ribozyme fitness (log ratio)” value is -4.49. Regarding C80A U106A, the “polymerase ribozyme fitness (log ratio)” value was -3.28. As for U81C C88U, the figure is 0.221. As for U81A C85U, the figure is -2.56. U81A A111U: the “polymerase ribozyme fitness (log ratio)” value was -5.01. As for C79A C80G, the figure is -5.91; as for U81A C89A, -2.06. Consider C80U G117A, for which the “polymerase ribozyme fitness (log ratio)” value was -2.28. As for C79A G110C, the figure is -5.36; as for C79A G110U, -3.48; as for U81C C88A A90U C104G G120U, -7.44.

Consider C79A A105U, for which the “polymerase ribozyme fitness (log ratio)” value is -4.41.

On to C79A C114A, for which the “polymerase ribozyme fitness (log ratio)” value is -2.46. The same measure for C79A C114G: -4.53. As for C79U U129G, the figure is -1.35; as for U78C C97G C104A, -4.78; as for C79A A119G, -0.23. For the variant C80A A95U C114U C124U, the “polymerase ribozyme fitness (log ratio)” value is -7.55.

With C82A A84C G110C, the “polymerase ribozyme fitness (log ratio)” value is -4.7. As for U78C C104U, the figure is 0.332; as for U78C C104A, -1.61; as for C79U, -0.19. For the variant C79A, the “polymerase ribozyme fitness (log ratio)” value is -1.04. For C79G, the “polymerase ribozyme fitness (log ratio)” value was -1.54. As for C80U C82U U96A, the figure is -1.82; as for C79A A121U U134G, 2.45. As for U78C C104A G113U, the figure is -4.71. As for C79A C82G U112A, the figure is -1.75.

Regarding U78C C79G U106A, the “polymerase ribozyme fitness (log ratio)” value was -0.519. The same measure for C82G U106A: -0.594. As for C79G G110A, the figure is -3.53; as for C79G G110C, -6.49. The same measure for U81C C89A A111G: -2.87. For the variant C79G A103G, the “polymerase ribozyme fitness (log ratio)” value is -5.92. As for U81G C82A, the figure is -2. As for C79G G122A, the figure is -2.11; as for C82G C86A, -0.475.

On to U78C C115A, for which the “polymerase ribozyme fitness (log ratio)” value was -0.63.

As to U78C A91G, the “polymerase ribozyme fitness (log ratio)” value was -1.15.

For the variant U78C C88A U106G C114G, the “polymerase ribozyme fitness (log ratio)” value is -3.35. On to U78C U87A U130C, for which the “polymerase ribozyme fitness (log ratio)” value is 0.517. The same measure for C82G A84U: 0.00652; for C80A C86U: -3.32. The same measure for U78C C89A: -0.68; for C79A C123A: -0.392. As for C82G U125A, the figure is -0.86; as for C80U C94G, -1.73. For the variant U78C C86G, the “polymerase ribozyme fitness (log ratio)” value was -0.656. As for C82G C124U, the figure is 1.29; as for C82A U109G, -4.53.

Consider C79U C88U C97U, for which the “polymerase ribozyme fitness (log ratio)” value is -0.508. U78G C101G: the “polymerase ribozyme fitness (log ratio)” value is -1.76.

Consider U78C G93A, for which the “polymerase ribozyme fitness (log ratio)” value was -0.707. As for C79A G117U, the figure is -3.95; as for C79U G93C A100U U112G, -2.61; as for C80A U81C, -4.02.

On to C79U G110A, for which the “polymerase ribozyme fitness (log ratio)” value was -0.826. As for U81C U87C A100U, the figure is -1.38; as for C80A U87G, -2.88; as for U78G A103C U130C, -5.75. The same measure for U78G U87C: 0.411; for U78C U87G C88A G113A G127A: -3.89.

C79U U130A: the “polymerase ribozyme fitness (log ratio)” value was -1.2.

As for U81C C102U, the “polymerase ribozyme fitness (log ratio)” value is -2.2. For the variant U81G A84C U116A G120C, the “polymerase ribozyme fitness (log ratio)” value was -3.83. As for U81G U106G C124U, the “polymerase ribozyme fitness (log ratio)” value is -5.53.

Consider C80U G113C G135C, for which the “polymerase ribozyme fitness (log ratio)” value is -2.92. The same measure for U81A A83U C115A: -1.27; for C79G U131C: -1.28. The same measure for C82A U112A: 1.06; for U78G G117C: -4.47. The same measure for C79A U106G: -3.37; for U78C G117U: -2.53. In the case of U81G C82A A84C G120U, the “polymerase ribozyme fitness (log ratio)” value was -1.07. C79G A90C U112A: the “polymerase ribozyme fitness (log ratio)” value was -3.88. As for U81A C86A, the figure is -2.24; as for U81A C86U, -1.8.

C82A C88A U96A: the “polymerase ribozyme fitness (log ratio)” value was -1.57.

As for C79G U116A, the “polymerase ribozyme fitness (log ratio)” value is -4.35. As for C80U C115A G120A U125A, the figure is -1.71. The same measure for U78C U106G: -1.09; for U81A U87C A121G: 1.6; for U81C C115G: -2.02. In the case of C79A C88G, the “polymerase ribozyme fitness (log ratio)” value was -2.33. As for C79A C88A, the figure is -1.22; as for C79A A84G, -3.26; as for C82G A83C, -0.655. As for C79A G113A C124G, the figure is -3.89; as for C82G U130A, -1.07; as for C79A C124G, -0.697. The same measure for C82G A91C C115G: -2.49; for C82A U126A: -2.16. For C80G A118U, the “polymerase ribozyme fitness (log ratio)” value is -5.08. As to U81C C115A G128C U131G, the “polymerase ribozyme fitness (log ratio)” value was -4.42. As for C79U U87A, the figure is 0.23; as for U78G C123A, -1.06. The same measure for C79A G107U A119G G135C: -5.92. As for U78C C88U, the figure is 0.285; as for C80U C114U, -2.33. Take U78C C94A: the “polymerase ribozyme fitness (log ratio)” value is -0.785. For the variant U81A A90G, the “polymerase ribozyme fitness (log ratio)” value is -0.0144. As for U78C C114G, the figure is -2.46; as for U78C C114U, -2.28; as for U78C A121C, 1.83.

Take C79A C115G: the “polymerase ribozyme fitness (log ratio)” value is -2.56. As for C79A C99G G120U, the figure is -7.33; as for C79U A95C, -0.848.

Take C82G C114A: the “polymerase ribozyme fitness (log ratio)” value is -3.29. As for C80U C98A U132C, the figure is -5.2. As for U81G C86U G120U U133A, the figure is -4.01; as for C79U U106A U116G, -2.6; as for C80U U129G U133A, -2.36.

Regarding C79G A121C, the “polymerase ribozyme fitness (log ratio)” value came to 0.144. As to C80A G117U, the “polymerase ribozyme fitness (log ratio)” value was -5.19. As for U81C G128U, the figure is -2.54. The same measure for C82A G120C: -0.101; for C79U U96G: -0.798.

Consider U78C U87A C98U, for which the “polymerase ribozyme fitness (log ratio)” value was -1.12.

These data come from the RNAGym collection of RNA variant scans (doi:10.1073/pnas.2313332121).
